# Experimental data taken from patent US8071348B2, “Protein tyrosine phosphatase substrate-trapping double mutant and uses thereof” (Albert Einstein College of Medicine of Yeshiva University, priority 2002, dated 2011).
# [ ]: non-standard residue; d: D form. F2Pmp = N[C@@H](Cc1ccc(C(F)(F)P(=O)(O)O)cc1)C(=O)O
# B1: PTP1B/D181A/C215E, catalytic domain (residues 1 to 321) (enzyme, human, UniProt P18031 1-321, looked up)
# chain: MEMEKEFEQIDKSGSWAAIYQDIRHEASDFPCRVAKLPKNKNRNRYRDVSPFDHSRIKLHQEDNDYINASLIKMEEAQRSYILTQGPLPNTCGHFWEMVWEQKSRGVVMLNRVMEKGSLKCAQYWPQKEEKEMIFEDTNLKLTLISEDIKSYYTVRQLELENLTTQETREILHFHYTTWPAFGVPESPASFLNFLFKVRESGSLSPEHGPVVVHESAGIGRSGTFCLADTCLLLMDKRKDPSSVDIKKVLLEMRKFRMGLIQTADQLRFSYLAVIEGAKFIMGDSSVQDQWKELSHEDLEPPPEHIPPPPRPPKRILEPHN
# notes: range 1-321; Used in vitro (ITC)
# How the values were obtained:
# [1] = tested on: EGFR^988-998 peptide, DADEpYLIPQQG; assay: Kinetic constants for PTP1B-catalyzed hydrolysis of pTyr-containing EGFR988-998 peptide; type: biochemical; conditions: EGFR988-998 peptide as substrate
# Description: The catalytic domain of PTP1B (residues 1 to 321) was used for in vitro study. PTP1B mutants, C215S, D181A, and Q262A, were described previously (9, 25, 26). PTP1B double mutants, D181A/C215S and C215S/Q262A, were generated by PCR reactions, according to the standard procedure of the Quick-Change™ site-directed mutagenesis kit (Stratagene), using pT7-7/PTP1B/C215S as a template. PTP1B double mutants, D181A/C215E and D181A/Q262A, were generated by similar PCR procedures, using pT7-7/PTP1B/D181A as a template. The recombinant wild-type and mutant PTP1Bs were expressed in E. coli, and purified to homogeneity as described (25, 27). Protein concentration was determined from absorbance measurement at 280 nm, using an absorbance coefficient of 1.24 for 1 mg/ml PTP1B.
# All assays were performed at 25° C. in buffer (pH 7.0, ionic strength=0.15 M) containing 50 mM 3,3-dimethylglutarate and 1 mM EDTA. A continuous spectrophotometric assay, previously described (28), was employed to determine kcat and Km for the pTyr-containing peptides. The dephosphorylation reaction was monitored by either an increase in absorbance at 282 nm, or an increase in fluorescence at 305 nm. Fluorometric and absorbance determinations were performed on a Perkin-Elmer LS50B fluorometer and a Perkin-Elmer Lambda 14 spectrophotometer, respectively. The instruments were equipped with a water-jacketed cell holder, permitting maintenance of the reaction mixture at the desired temperature (25° C.).
# [2] = biological target: T1, Ac-Asp-Ala-Asp-Glu-F2Pmp-Leu-NH2; assay: ITC, 25 C, pH 7.0
# T1 construct: Synthetic hexapeptide printed in three-letter code; also called F2Pmp-containing peptide; non-hydrolyzable substrate analog
# T1 peptide: Ac-DADE[F2Pmp]L-NH2
# Procedure: (§1) All isothermal titration calorimetry experiments were performed using an MCS Isothermal Titration Calorimetry System from Microcal Inc. (Northampton, Mass.). Experiments at pH 7.0 were conducted at 25° C., in 50 mM 3,3-dimethylglutarate buffer containing 1 mM DTT. The ionic strength of the buffer was adjusted to 0.15 M by addition of NaCl. Protein concentration in the calorimeter cell was 27-85 µM, while the ligand concentration in the syringe was 0.37-1 mM.
# (§2) A typical titration curve and binding isotherm for the binding of D181A/Q262A to Ac-Asp-Ala-Asp-Glu-F_2Pmp-Leu-NH_2 is shown in FIG. 3. From curve-fitting of the binding isotherms, the stoichiometry for the binding of the peptide to D181A/Q262A was determined to be 1:1.
# [3] = biological target: T1, Ac-Asp-Ala-Asp-Glu-F2Pmp-Leu-NH2; assay: ITC, 25 C, pH 7.0
# Procedure: as §1
# The PTP1B samples used in the isothermal titration calorimetry experiments were dialyzed completely against buffer. High-concentration stock solutions were prepared for ligands with distilled water, and adjusted to pH 7.0. […] Protein dilution during titration was determined by titration of buffer into the protein solution. […] The heat of ligand dilution was corrected by subtracting the average heat of injection after saturation.
# as §2
# [4] = biological target: Ac-Asp-Ala-Asp-Glu-F2Pmp-Leu-NH2; assay: Isothermal titration calorimetry, binding of PTP1B and mutants to F2Pmp peptide; conditions: ITC, 25° C. and pH 7.0; data from this study
# Procedure: FIG. 3 portrays calorimetric isothermal titration for the reaction of peptide Ac-Asp-Ala-Asp-Glu-F2Pmp-Leu-NH2 with PTP1B/D181A/Q262A. The upper graph depicts raw data for thirty 8-μl injections of the peptide (0.5 mM stock) into the isothermal cell containing 32 μM PTP1B/D181A/Q262A, at 4-min intervals and 25° C. Both the protein and the peptide were in 50 mM 3,3-dimethylglutarate buffer (I=0.15 M, pH 7.0) containing 1 mM DTT. The lower graph depicts an integration curve showing experimental points that were obtained by integration of the above peaks as plotted against the molar ratio of the peptide to PTP1B/D181A/Q262A within the reaction cell. The solid line corresponds to the best fit to the data according to the nonlinear, least-squares regression algorithm, ORIGIN (29).
# as §1, with “Experiments at pH 7.0 were conducted at 25° C., in 50 mM 3,3-dimethylglutarate buffer containing 1 mM DTT.” left out, “μM,” for “µM,”
# The PTP1B samples used in the isothermal titration calorimetry experiments were dialyzed completely against buffer. High-concentration stock solutions were prepared for ligands with distilled water, and adjusted to pH 7.0. Stock was diluted at least 26-fold with 50 mM 3,3-dimethylglutarate buffer before titration. Protein dilution during titration was determined by titration of buffer into the protein solution. […] The heat of ligand dilution was corrected by subtracting the average heat of injection after saturation.
# The binding data were analyzed using ORIGIN software (29). Binding constant, K, and enthalpy change, ΔH, were used to calculate free energy change, ΔG, and entropy change, ΔS, according to equation [1]: −RTLnK=ΔG=ΔH−TΔS [1] where R is the gas constant and T is the absolute temperature.
molecule,measurement,setting,value
B1,phosphatase activity,[1],no measurable activities
same,fold lower affinity than the C215S mutant,[2],7 fold
same,fold lower affinity than the D181A mutant,[2],32 fold
same,TΔS,[3],-20.4 kcal/mol
same,ΔG,[3],-8 kcal/mol
same,ΔH,[3],-28.4 kcal/mol
same,Kd,[4],1300 nM
